The source of these data is the Human Domainome abundance scans (Beltran et al. 2025).

B1: Ankyrin repeat and SAM domain-containing protein 6, residues 774 to 836; numbered along this chain, Q68DC2 (parent)
chain: DEDELTGILKKLSLEKYQPIFEEQEVDMEAFLTLTDGDLKELGIKTDGSRQQILAAISELNAG

± gives the uncertainty stated by the source.

This data set covers variants of B1. As to the kind of experiment: abundance fitness (aPCA) (normalised: wild type 0, dead -1); higher = more abundant; growth selection in yeast, the domain comes from the species named. The following applies: Homo sapiens.
As for DEDELTGILKKLSLEKYQPIFEEQEVDMEAFLTLTDGDLKELGTKTDGSRQQILAAISELNAG, the abundance fitness is -0.555 ± 0.064. Under DEDELTGILKKLSLEKYQPIFEEQEVDMEAFLTLTDGDLKELGYKTDGSRQQILAAISELNAG stands -0.766 ± 0.15; under DEDELTGILKKLSLEKYQPIFEEQEVDMEAFLTLTDGDLKELGQKTDGSRQQILAAISELNAG, -0.643 ± 0.086. Under DEDELTGILKKLSLEKYQPIFEEQEVDMEAFLTLTDGDLKELGPKTDGSRQQILAAISELNAG stands -0.746 ± 0.09. With DEDELTGILKKLSLEKYQPIFEEQEVDMEAFLTLTDGDLKELGLKTDGSRQQILAAISELNAG, the abundance fitness is -0.245 ± 0.042.

For DEDELTGILKKLSLEKYQPIFEEQEVDMEAFLTLTDGDLKELGVKTDGSRQQILAAISELNAG, the abundance fitness came out at 0.037 ± 0.047. For the variant DEDELTGILKKLSLEKYQPIFEEQEVDMEAFLTLTDGDLKELGWKTDGSRQQILAAISELNAG, the abundance fitness was -0.654 ± 0.061. With DEDELTGILKKLSLEKYQPIFEEQEVDMEAFLTLTDGDLKELGNKTDGSRQQILAAISELNAG, the abundance fitness is -0.645 ± 0.095. The same measure for DEDELTGILKKLSLEKYQPIFEEQEVDMEAFLTLTDGDLKELGSKTDGSRQQILAAISELNAG: -0.651 ± 0.05; for DEDELTGILKKLSLEKYQPIFEEQEVDMEAFLTLTDGDLKELGMKTDGSRQQILAAISELNAG: -0.253 ± 0.058; for DEDELTGILKKLSLEKYQPIFEEQEVDMEAFLTLTDGDLKELGRKTDGSRQQILAAISELNAG: -0.676 ± 0.057. With DEDELTGILKKLSLEKYQPIFEEQEVDMEAFLTLTDGDLKELGIKTDGFRQQILAAISELNAG, the abundance fitness was -0.249 ± 0.07.

For DEDELTGILKKLSLEKYQPIFEEQEVDMEAFLTLTDGDLKELGIKTDGERQQILAAISELNAG, the abundance fitness stood at 0.181 ± 0.044. As for DEDELTGILKKLSLEKYQPIFEEQEVDMEAFLTLTDGDLKELGIKTDGHRQQILAAISELNAG, the abundance fitness amounted to 0.009 ± 0.075. For the variant DEDELTGILKKLSLEKYQPIFEEQEVDMEAFLTLTDGDLKELGIKTDGCRQQILAAISELNAG, the abundance fitness turned out to be 0.096 ± 0.059. Under DEDELTGILKKLSLEKYQPIFEEQEVDMEAFLTLTDGDLKELGIKTDGMRQQILAAISELNAG stands -0.068 ± 0.067; under DEDELTGILKKLSLEKYQPIFEEQEVDMEAFLTLTDGDLKELGIKTDGGRQQILAAISELNAG, -0.055 ± 0.033; under DEDELTGILKKLSLEKYQPIFEEQEVDMEAFLTLTDGDLKELGIKTDGNRQQILAAISELNAG, 0.003 ± 0.062. Under DEDELTGILKKLSLEKYQPIFEEQEVDMEAFLTLTDGDLKELGIKTDGDRQQILAAISELNAG stands 0.157 ± 0.033. The same measure for DEDELTGILKKLSLEKYQPIFEEQEVDMEAFLTLTDGDLKELGIKTDGKRQQILAAISELNAG: -0.186 ± 0.081.

For the variant DEDELTGILKKLSLEKYQPIFEEQEVDMEAFLTLTDGDLKELGIKTDGLRQQILAAISELNAG, the abundance fitness is -0.191 ± 0.051.

For the variant DEDELTGILKKLSLEKYQPIFEEQEVDMEAFLTLTDGDLKELGITTDGSRQQILAAISELNAG, the abundance fitness was -0.02 ± 0.057. Under DEDELTGILKKLSLEKYQPIFEEQEVDMEAFLTLTDGDLKELGIMTDGSRQQILAAISELNAG stands 0.008 ± 0.1; under DEDELTGILKKLSLEKYQPIFEEQEVDMEAFLTLTDGDLKELGICTDGSRQQILAAISELNAG, -0.191 ± 0.053. Under DEDELTGILKKLSLEKYQPIFEEQEVDMEAFLTLTDGDLKELGIQTDGSRQQILAAISELNAG stands -0.151 ± 0.078; under DEDELTGILKKLSLEKYQPIFEEQEVDMEAFLTLTDGDLKELGIPTDGSRQQILAAISELNAG, -0.044 ± 0.053. Under DEDELTGILKKLSLEKYQPIFEEQEVDMEAFLTLTDGDLKELGINTDGSRQQILAAISELNAG stands -0.079 ± 0.072; under DEDELTGILKKLSLEKYQPIFEEQEVDMEAFLTLTDGDLKELGIGTDGSRQQILAAISELNAG, -0.114 ± 0.049. Regarding DEDELTGILKKLSLEKYQPIFEEQEVDMEAFLTLTDGDLKELGIHTDGSRQQILAAISELNAG, the abundance fitness was -0.076 ± 0.076. Under DEDELTGILKKLSLEKYQPIFEEQEVDMEAFLTLTDGDLKELGIYTDGSRQQILAAISELNAG stands -0.233 ± 0.063. Regarding DEDELTGILKKLSLEKYQPIFEEQEVDMEAFLTLTDGDLKELGILTDGSRQQILAAISELNAG, the abundance fitness is -0.066 ± 0.045. Under DEDELTGILKKLSLEKYQPIFEEQEVDMEAFLTLTDGDLKELGIATDGSRQQILAAISELNAG stands -0.055 ± 0.047; under DEDELTGILKKLSLEKYQPIFEEQEVDMEAFLTLTDGDLKELGIETDGSRQQILAAISELNAG, 0.013 ± 0.079. The same measure for DEDELTGILKKLSLEKYQPIFEEQEVDMEAFLTLTDGDLKELGIRTDGSRQQILAAISELNAG: -0.027 ± 0.041; for DEDELTGILKKLSLEKYQPIFEEQEVDMEAFLTLTDGDLKELGIDTDGSRQQILAAISELNAG: 0.079 ± 0.05; for DEDELTGILKKLSLEKYQPIFEEQEVDMEAFLTLTDGDLKELGIVTDGSRQQILAAISELNAG: -0.225 ± 0.05. Under DEDELTGILKKLSLEKYQPIFEEQEVDMEAFLTLTDGDLKELGIFTDGSRQQILAAISELNAG stands -0.143 ± 0.11; under DEDELTGILKKLSLEKYQPIFEEQEVDMEAFLTLTDGDLKELGIITDGSRQQILAAISELNAG, -0.348 ± 0.091. Consider DEDELTGILKKLSLEKYQPIFEEQEVDMEAFLTLTDGDLKELGIKSDGSRQQILAAISELNAG, for which the abundance fitness was determined as 0.017 ± 0.041.

Consider DEDELTGILKKLSLEKYQPIFEEQEVDMEAFLTLTDGDLKELGIKKDGSRQQILAAISELNAG, for which the abundance fitness came to 0.061 ± 0.068. Turning to DEDELTGILKKLSLEKYQPIFEEQEVDMEAFLTLTDGDLKELGIKMDGSRQQILAAISELNAG, the abundance fitness is -0.039 ± 0.062. With DEDELTGILKKLSLEKYQPIFEEQEVDMEAFLTLTDGDLKELGIKEDGSRQQILAAISELNAG, the abundance fitness turned out to be 0.084 ± 0.072.
